{"source": "patent US8221773B2", "about": "“Hydrogels and uses thereof” (University of Delaware, priority 2004, dated 2012)", "key": {"[1]": {"assay": "Oscillatory rheology of peptide hydrogels (storage and loss moduli)", "format": "physicochemical", "details": "2 wt %, pH 9, 20° C, 6 Hz, 1% strain"}, "NIH 3T3 fibroblasts": {"system": "NIH 3T3 fibroblasts", "assay": "3H thymidine cell seeding / proliferation assay", "format": "cell-based, mouse", "details": "2 wt. % hydrogel, 48 hours", "from_the_text": "A quantitative assay that could be used to measure the rate of cell proliferation was developed. This allows gels having different material properties and constituent peptide sequences to be compared in terms of how well they support proliferation. Standard colorimetric assays such as the MTT and XTT have proven unsuitable for use with hydrogels of the invention. These assays rely on the ability of cells to metabolize tetrazolium derivatives to their corresponding colored formazan analogs. The analogs permeate into the hairpin hydrogel and become immobilized making subsequent quantification by UV spectroscopy unreliable. This problem has been addressed by utilizing ^3H thymidine-based assays in which thymidine is incorporated into proliferating cells undergoing DNA replication. […] The assay is two-fold. […] Second, a proliferation rate may be determined for a given material by seeding the cells (at optimal density) onto the material and determining the number of cells undergoing DNA replication at discrete time points up to 48 hours when confluency is reached. […] Unincorporated thymidine may be washed out (washes may be assayed until ^3H thymidine is no longer detected) and the cells sacrificed for scintillation counting. […] Therefore, for each new material, similar cell seeding experiments may be performed before rates of proliferation are determined. […]"}, "[2]": {"assay": "CD spectroscopy of peptide folding (random coil vs β-sheet)", "format": "physicochemical", "description": "Time-dependent circular dichroism (CD) studies support a hydrogelation mechanism consistent with intramolecular hairpin formation followed by self-assembly. […] At temperatures >25° C. the folding and self-assembly of MAX1 occurs on the order of seconds. […] This behavior is consistent across all spectro- and microscopic methods used to interrogate MAX1. For example, at micromolar concentrations used for the CD studies shown in FIGS. 4A and 4B, self-assembly takes hours at 20° C. At millimolar concentrations, such as those used in the rheological studies described below, self-assembly leading to hydrogel takes minutes at 20° C.\nThe reversibility of the folding and self-assembly process was investigated by measuring θ216 as a function of pH and time as shown in FIG. 4C. CD of a stirred solution of MAX1 at pH 5.5 indicates random coil conformation. Adjusting the pH to 9.0 by the addition of NaOH results in β-sheet formation as expected. However, subsequent adjustment of the pH to 6.0 results in complete loss of sheet signal and full recovery of random coil signal. […] Again, this reversible behavior is not observed in hydrogels formed from amyloid/prion-like fibrils.\nIn some embodiments of the invention, various functionalities (e.g., cell adhesion epitopes, receptor agonists, receptor antagonists, ligands, small molecules, etc) may be incorporated into the hairpin hydrogel scaffold. One way to accomplish this would be to functionalize one or more amino acid side chains of the peptide. […] In some embodiments, the moieties to be incorporated at a particular side chain may be much larger (e.g. RGD-based motifs) and may contain charged residues. MAX5 (VKVKVKVKV^DPPTKVKEKVKV-NH2) was prepared to investigate the possibility of incorporating a charged residue on the hydrophobic face of MAX1. The sequence contains a glutamic acid residue at position 16 which is negatively charged at basic pH where MAX1 normally folds and assembles. […] However, alterations to the hydrophilic face of MAX1 are well tolerated. Sequences in which one or two lysine residues are replaced with other residues such as cysteine, serine, and glutamic acid are capable of folding and self-assembly into rigid hydrogels (data not shown).\nThe peptides described above contain identical turn sequences, namely (-V^DPPT-). This sequence has a strong propensity to form a type II′ turn and therefore helps to drive intramolecular folding. Since intramolecular folding must occur prior to self-assembly, alterations to this turn sequence that inhibit turn structure formation can be used to modulate intramolecular folding and self-assembly leading to hydrogelation. MAX9 was prepared to probe the importance of the turn region (VKVKVKVKV^LPPTKVKVKVKV-NH2). […]"}}, "note": "Entries after “also recorded” stand apart in the source; their conditions may differ. Where no end group is shown, it is not given here.", "data": [{"sequence": "VKVKVKVK V^DPPT KVKVKVKV-NH2 (not fully specified (C-terminus)) [MAX1]", "values": [{"measurement": "gel storage modulus after 30 minutes", "setting": "[1]", "result": "~600", "unit": "Pa"}, {"measurement": "optimal cell seeding density for 2 day proliferation assays", "setting": "NIH 3T3 fibroblasts", "result": "40,000 fibroblasts"}, {"measurement": "cell proliferation on hydrogel versus tissue culture polystyrene control", "setting": "NIH 3T3 fibroblasts; 3H thymidine counts", "result": "more cells have grown on the hydrogel than on the control surface; also recorded: higher than the control"}, {"measurement": "time to plateau of β-sheet formation (ellipticity at 218 nm)", "setting": "[2]; 2.0 wt %, pH 7.4, 150 mM KF, 37° C", "result": 15, "unit": "min"}, {"measurement": "reversibility of folding and self-assembly with pH", "setting": "[2]; stirred 300 μM solution, pH 5.5 to 9.0 to 6.0, 20° C", "result": "reversible"}]}]}
